Assay [1] addresses T1, cynomolgus monkey PD-L1 on cells (cynomolgus monkey, UniProt G7PSE7 19-290). As to the kind of experiment: FACS binding.
In assay [2] the target is T2, HuCD100-Fc (in-house prepared) (human, UniProt Q92854 22-734, biotinylated in the Plexin binding and blocking assays (sites not given)). Nature of the assay: FACS blocking; HuPlexin-B1-HEK293, FIG. 12B.
In assay [3] the target is T3, full-length mouse CD100 protein MusCD100 on cells (mouse, UniProt O09126 24-861).
T3 chain: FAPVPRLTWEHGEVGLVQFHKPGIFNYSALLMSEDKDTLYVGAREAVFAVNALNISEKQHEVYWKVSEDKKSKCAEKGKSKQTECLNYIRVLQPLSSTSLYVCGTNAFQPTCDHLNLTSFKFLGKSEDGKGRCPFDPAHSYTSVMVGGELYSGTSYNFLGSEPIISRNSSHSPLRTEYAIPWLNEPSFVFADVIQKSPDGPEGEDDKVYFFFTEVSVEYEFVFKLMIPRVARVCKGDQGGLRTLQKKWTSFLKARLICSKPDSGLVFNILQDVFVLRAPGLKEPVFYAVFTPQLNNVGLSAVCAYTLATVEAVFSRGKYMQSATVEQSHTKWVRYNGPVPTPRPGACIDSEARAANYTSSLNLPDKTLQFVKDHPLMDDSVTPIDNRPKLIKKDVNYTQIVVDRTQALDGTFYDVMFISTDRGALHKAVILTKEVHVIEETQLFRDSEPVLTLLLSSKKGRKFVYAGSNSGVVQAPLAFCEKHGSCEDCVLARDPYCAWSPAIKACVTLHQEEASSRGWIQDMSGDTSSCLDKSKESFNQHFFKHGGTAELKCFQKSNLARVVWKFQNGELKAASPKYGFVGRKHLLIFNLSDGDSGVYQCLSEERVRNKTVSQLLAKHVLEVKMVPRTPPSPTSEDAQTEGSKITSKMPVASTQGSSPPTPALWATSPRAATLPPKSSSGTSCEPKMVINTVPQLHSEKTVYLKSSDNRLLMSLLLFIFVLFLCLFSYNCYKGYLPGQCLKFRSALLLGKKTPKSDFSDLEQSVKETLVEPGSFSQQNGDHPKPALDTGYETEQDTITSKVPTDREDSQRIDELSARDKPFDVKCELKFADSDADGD
As to the kind of experiment: FACS. Background: Flow cytometry measures light scatter and fluorescence of single cells or particles in a stream.

The target of assay [4] is T4, full-length human CD100 protein HuCD100 on cells (human, UniProt Q92854 22-862). Nature of the assay: FACS.
The target of assay [5] is CynoCD100-HEK293 (cynomolgus monkey). Nature of the assay: FACS.
Assay [6] has as its target T2, HuCD100-Fc (in-house prepared). As to the kind of experiment: FACS blocking; HuPlexin-B2-HEK293, FIG. 12D.
In assay [7] the target is T5, HuCD100-His (human, UniProt Q92854 22-734). Nature of the assay: ELISA; FIG. 5D.
The target in assay [8] is T4, full-length human CD100 protein HuCD100 …. As to the kind of experiment: FACS; HuPBMC cells.
Assay [9] shares this target. As to the kind of experiment: FACS. The source holds these as a separate data set.
The target of assay [10] is T2, HuCD100-Fc (in-house prepared). Nature of the assay: FACS blocking; FIG. 8B, blocking of binding to HuPlexin-B2-HEK293.
In assay [11] the target is T3, full-length mouse CD100 protein …. As to the kind of experiment: FACS.
In assay [12] the target is T4, full-length human CD100 protein HuCD100 …. As to the kind of experiment: FACS binding; FIG. 11D.
Assay [13] has as its target T6, MusCD100-His (mouse, UniProt O09126 24-733).
T6 chain: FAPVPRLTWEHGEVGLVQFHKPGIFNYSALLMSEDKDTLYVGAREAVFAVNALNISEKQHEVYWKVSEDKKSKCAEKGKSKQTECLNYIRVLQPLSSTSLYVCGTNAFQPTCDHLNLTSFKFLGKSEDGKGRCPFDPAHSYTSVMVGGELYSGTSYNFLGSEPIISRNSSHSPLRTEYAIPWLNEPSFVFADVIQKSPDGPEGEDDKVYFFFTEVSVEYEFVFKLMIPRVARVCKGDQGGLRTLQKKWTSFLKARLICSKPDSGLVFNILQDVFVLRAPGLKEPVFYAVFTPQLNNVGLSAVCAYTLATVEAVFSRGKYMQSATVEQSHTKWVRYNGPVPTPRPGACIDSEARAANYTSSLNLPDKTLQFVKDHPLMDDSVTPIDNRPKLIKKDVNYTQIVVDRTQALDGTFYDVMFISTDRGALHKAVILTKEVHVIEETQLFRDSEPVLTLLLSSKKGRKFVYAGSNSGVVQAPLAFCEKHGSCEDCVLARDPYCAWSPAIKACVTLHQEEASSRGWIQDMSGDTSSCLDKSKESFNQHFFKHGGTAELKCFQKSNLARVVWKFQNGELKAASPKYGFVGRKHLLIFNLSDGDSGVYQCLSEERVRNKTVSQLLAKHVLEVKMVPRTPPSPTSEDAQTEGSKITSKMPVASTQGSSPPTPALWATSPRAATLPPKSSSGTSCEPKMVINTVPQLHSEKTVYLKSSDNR
Nature of the assay: ELISA; FIG. 5E.

Assay [14] deals with CynoCD100-His (cynomolgus monkey). Nature of the assay: ELISA; FIG. 5F. A general note: An ELISA detects its analyte on a solid surface through an enzyme-linked reagent.
For assay [15], the target named is CynoCD100-HEK293 (cynomolgus monkey). Nature of the assay: FACS. The source holds these as a separate data set.
Assay [16] addresses T2, HuCD100-Fc (in-house prepared). As to the kind of experiment: FACS blocking; blocking of binding to HuPlexin-B1-HEK293.
For the next assay, the target named is T7, MusCD100-Fc (mouse, UniProt O09126 24-733, biotinylated in the Plexin binding and blocking assays (sites not given)).
T7 chain: T6 chain
As to the kind of experiment: FACS blocking; MusPlexin-B1-HEK293, FIG. 12F.

Assay [17] deals with T6, MusCD100-His. Nature of the assay: ELISA.
The target in assay [18] is T5, HuCD100-His. Nature of the assay: ELISA.
Assay [19] deals with CynoCD100-His (cynomolgus monkey). As to the kind of experiment: ELISA.
In assay [20] the target is CynoCD100-HEK293 (cynomolgus monkey). Nature of the assay: FACS. The source holds these as a separate data set.
Assay [21] concerns the target CynoCD100-His (cynomolgus monkey). As to the kind of experiment: ELISA; FIG. 5C.
Assay [22] concerns the target T1, cynomolgus monkey PD-L1 on cells. As to the kind of experiment: FACS binding. This is another data set of the same source.

Substitutions are numbered along the chain they refer to. Where two headings read alike, the source gives them in different places.

T1 sequence (G7PSE7 entry or part of it): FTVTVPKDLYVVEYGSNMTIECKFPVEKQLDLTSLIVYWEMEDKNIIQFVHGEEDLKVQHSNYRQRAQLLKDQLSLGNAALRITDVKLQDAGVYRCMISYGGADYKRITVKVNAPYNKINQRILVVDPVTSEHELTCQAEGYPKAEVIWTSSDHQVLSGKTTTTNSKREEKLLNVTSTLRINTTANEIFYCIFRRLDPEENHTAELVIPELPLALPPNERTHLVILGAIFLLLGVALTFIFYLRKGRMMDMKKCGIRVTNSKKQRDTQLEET

B1: Avelumab (antibody, V domains shown)
VH: EVQLLESGGGLVQPGGSLRLSCAASGFTFSSYIMMWVRQAPGKGLEWVSSIYPSGGITFYADTVKGRFTISRDNSKNTLYLQMNSLRAEDTAVYYCARIKLGTVTTVDYWGQGTLVTVSS
VL: QSALTQPASVSGSPGQSITISCTGTSSDVGGYNYVSWYQQHPGKAPKLMIYDVSNRPSGVSNRFSGSKSGNTASLTISGLQAEDEADYYCSSYTSSSTRVFGTGTKVTVLG
A word on the EC50: it is the concentration at which the effect is half-maximal. With B1, the response in assay [1] was half-maximal at 0.988 µg/mL (EC50).

B2: A31 (antibody, V domains shown)
VH: EVQLVESGGGLVQPEGSLRLSCAASGFPLDYYAIGWFRQAPGKEREGVSCIISGGSTKYSASVKGRFTISRDSANNTVYLQMNSLKPEDTAVYFCAVSWSCDLFPRDTYGWDAWGQGTLVTVSS
For orientation: IC50 means the concentration at which inhibition is half-maximal. Regarding B2, the IC50 in [2] is 837 pM; in assay [6], around 4240 pM; in assay [10] it was 2480 pM; in [16], 1060 pM; with MusCD100-Fc, 9860 pM. The EC50 in assay [3] was determined as 1150 pM; in [4], 467 pM; in the assay with CynoCD100-HEK293 [5] it was 327 pM; with HuCD100-His [7] it was 45.2 pM; in assay [8], 754 pM; in [9] it was 374 pM. Moreover, the EC50 is 945 pM in [11]; 367 pM in [12]; 59400 pM with MusCD100-His [13]; 51.2 pM in the assay with CynoCD100-His [14]; 579 pM with CynoCD100-HEK293 [15].

B3: A31-VHH1 (antibody, V domains shown)
VH: B2 VH with N75K, K86R, P87A
Regarding B3, the values for the IC50 (in [2]; in [6]; with MusCD100-Fc) were 800 pM, 5430 pM and 4840 pM, respectively. The EC50 in assay [3] was determined as 1780 pM; in assay [4] it was 504 pM; in assay [8], 356 pM; in the assay with MusCD100-His [17], 230 pM; with HuCD100-His [18], 202 pM; in assay [12], 413 pM. The EC50 with CynoCD100-His [19] came to 131 pM.

B4: A9-VHH2 (antibody, V domains shown)
VH: QVQLVESGGGLVQAGGSLRLSCAASGFSLDYYAIGWFRQAPGKEREEVSCISSSGGSTDYADSVKGRFTISRAYAKVYLQMNSLRAEDTAVYYCAAGVSGSVCPPLIGAYWGQGTLVTVSS
For the molecule B4, the EC50 with CynoCD100-HEK293 [20] was 516 pM; with CynoCD100-His [19] it was 743 pM.

B5: A9 (antibody, V domains shown)
VH: B4 VH with R85K, A86P, L116Q
As to B5, the 50% effective concentration (EC50) with CynoCD100-His [21] is 178 pM; with CynoCD100-HEK293 [20] it was 470 pM; with CynoCD100-HEK293 [15] it was 776 pM.

B6: A9-VHH1 (antibody, V domains shown)
VH: B4 VH with A14P, R85K, A86P
Turning to B6, the EC50 in the assay with CynoCD100-HEK293 [20] stood at 552 pM; with CynoCD100-His [19], 169 pM.

B7: A9-VHH3 (antibody, V domains shown)
VH: B4 VH with E44G, R45L
For B7, the values for the EC50 in the assay with CynoCD100-HEK293 [20] and with CynoCD100-His [19] were 835 pM and 1310 pM, respectively.

B8: m18 (antibody, V domains shown)
VH: EVQLVESGGGLVQPGGSLRLSCAASRTDSNIHGMHWYRQAPGKGREWVGMIFIDGNTIVTDSVKGRFTISRDNAKNTLYLQMNTLRAEDTAVYYCAADSRGYGRAWGQGTTVTVSS
In [22], B8 yielded an EC50 of 0.242 µg/mL.

(Values after patent US20260028402A1 (published 2026).)
